Source: patent US20240228595A1

Target: SARS-COV-2 Omicron BA.1.1 spike on HIV-1 based pseudovirus (SARS-CoV-2 Omicron BA.1.1) (UniProt P0DTC2)
Test: cell-based or functional assay

## S309 (Sotrovimab) (antibody)
  pseudovirus neutralization, IC50: 0.533 mg/L
